As usually defined, the Kd is the concentration at which binding is half-saturated. Higher therefore signals lower affinity. Usually koff stands for the first-order rate constant of dissociation. Higher therefore signals fast dissociation. As a reminder, the kon is the second-order rate constant of association. Low values mean slow association, high ones fast association.

Here are results for 2 molecules from publication PMC9163516.

This assay has as its target T1, biotinylated avi-tagged TβRI, P36897.
T1 chain: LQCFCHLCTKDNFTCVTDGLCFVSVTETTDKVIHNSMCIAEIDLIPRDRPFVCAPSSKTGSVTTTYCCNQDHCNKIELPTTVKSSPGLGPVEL
Put plainly: SPR; BIAcore X100; biotinylated avi-tagged TβRI or TβRII captured on neutravidin-coated CM-5 chip (results say streptavidin) at 50-150 RU; TGM constructs injected as 2-fold dilution series in 25 mM Hepes, pH 7.4, 150 mM NaCl, 0.005% P20, 100 μl/min; 1:1 kinetic fit of a single injection series. In general terms: In SPR one partner is held on a chip, and binding of the other changes the refractive index at the surface.

B1: TGM-D2 (domain or fragment)
chain: RCSPLPTNDTVSFEYLKATVNPGIIFNITVHPDASGKYPELTYIKRICKNFPTDSNVQGHIIGMCYNAEWQFSSTPTCPAS
modifications: not checked
As to B1, the Kd is 310 nM, the koff amounted to 0.091 s⁻¹ and the kon was found to be 300000 M⁻¹ s⁻¹.

B2: TGM-D12 (domain or fragment)
chain: DDSGCMPFSDEAATYKYVAKGPKNIEIPAQIDNSGMYPDYTHVKRFCKGLHGEDTTGWFVGICLASQWYYYEGVQECDDRRCSPLPTNDTVSFEYLKATVNPGIIFNITVHPDASGKYPELTYIKRICKNFPTDSNVQGHIIGMCYNAEWQFSSTPTCPAS
modifications: not checked
B2 had a Kd of 24 nM, a koff of 0.0016 s⁻¹ and a kon of 67000 M⁻¹ s⁻¹.
